Results published in publication PMC11342271, “A high-throughput screening identifies MCM chromatin loading inhibitors targeting cells with increased replication origins” (iScience, 2024).

What was measured:
[1] = biological target: T1, recombinant Xenopus laevis CDC6 (rCDC6) (Xenopus laevis, UniProt P79946); experiment: isothermal titration calorimetry, one-site fit; type: binding; details: 25 °C; PBS, 10% glycerol, 1 mM MgCl2, 1 mM DTT, 1% DMSO; CDC6 74 μM (75 μM in methods) titrated with 1 mM compound
T1 construct: gene cdc6.S; full-length; GST fusion from pGEX-6P-1 in E. coli Rosetta (DE3); GST cleaved with HRV 3C protease; Resource S and Superdex 200 purified
T1 sequence (P79946 1-554): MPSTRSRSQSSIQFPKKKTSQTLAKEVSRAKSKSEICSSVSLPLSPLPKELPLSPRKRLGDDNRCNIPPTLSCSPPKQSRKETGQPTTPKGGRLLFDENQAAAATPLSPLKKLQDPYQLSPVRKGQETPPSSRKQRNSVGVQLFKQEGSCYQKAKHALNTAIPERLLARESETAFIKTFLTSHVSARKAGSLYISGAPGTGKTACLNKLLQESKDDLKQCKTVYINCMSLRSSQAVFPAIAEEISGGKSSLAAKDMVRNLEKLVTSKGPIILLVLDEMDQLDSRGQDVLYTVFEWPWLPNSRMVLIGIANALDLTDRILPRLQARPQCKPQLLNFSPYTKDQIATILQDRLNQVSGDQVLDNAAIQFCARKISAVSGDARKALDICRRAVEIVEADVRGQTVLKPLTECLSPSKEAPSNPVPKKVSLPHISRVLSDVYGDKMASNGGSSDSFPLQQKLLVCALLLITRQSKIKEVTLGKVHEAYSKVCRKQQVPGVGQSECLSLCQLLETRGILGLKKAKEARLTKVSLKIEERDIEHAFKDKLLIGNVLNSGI

[2] = system: MCM2-7 (detected via MCM7) (Xenopus laevis); experiment: ELISA (MCM7) on immobilized DNA; details: 5' biotin (BtnTg), Interphase Xenopus laevis egg extract (HSS; 2-fold diluted in ELISA), 30 min, room temperature (ELISA), wash buffer, salt and pH not given in the material

With `O=C1C(SCCO)=C(SCCO)C(=O)c2ccccc21` [NSC-95397, 2,3-bis(2-hydroxyethylsulfanyl) naphthalene-1,4-dione] the Kd [1] was 323 ± 269 nM.
bDNA (1.8 kb biotinylated DNA) was tested, and the binding signal ([2]; + 187 uM NSC-95397 (reduction at least 40%)) was < 60 % of DMSO, the binding signal ([2]; + 187 uM aminacrine (DNA intercalator; reduction at least 40%)) was < 60 % of DMSO and the binding signal ([2]; + 187 uM ethacridine (DNA intercalator; reduction at least 40%)) was < 60 % of DMSO.
